Values of other authors in article PMC10304963.
pKd: −log10 of the molar value.

Experiments:
[1] = target: SIRPα variant 2 (Homo sapiens) (UniProt P78324)
[2] = target: SIRPα variant 1 (Homo sapiens) (UniProt P78324)

pKd [1]: 6.19
pKd [2]: 6.13
Substance: CD47 (from UniProt Q08722)
